Test results as given in patent US20220252583A1.

Experiments:
[1] = target: monoclonal mouse IgG1 anti human CRP antibody B08; assay: swCNT-FET displacement of peptide 80715-Au nanoparticle complex from immobilised B08; CRP 12.5 nM in PBS
[2] = target: monoclonal mouse IgG1 anti human CRP antibody B08; assay: swCNT-FET displacement of peptide 80715-Au nanoparticle complex from immobilised B08; CRP 100 nM in PBS
[3] = target: monoclonal mouse IgG1 anti human CRP antibody B08; assay: swCNT-FET displacement of peptide 80715-Au nanoparticle complex from immobilised B08; CRP 1.56 nM in PBS
[4] = target: monoclonal mouse IgG1 anti human CRP antibody B08; assay: swCNT-FET displacement of peptide 80715-Au nanoparticle complex from immobilised B08; CRP 24 pM in PBS
[5] = target: monoclonal mouse IgG1 anti human CRP antibody B08; assay: swCNT-FET displacement of peptide 80715-Au nanoparticle complex from immobilised B08; CRP 381 fM in PBS
[6] = target: monoclonal mouse IgG1 anti human CRP antibody B08; assay: swCNT-FET displacement of peptide 80715-Au nanoparticle complex from immobilised B08; CRP 800 nM in PBS
[7] = target: monoclonal mouse IgG1 anti human CRP antibody B08; assay: swCNT-FET displacement of peptide 80715-Au nanoparticle complex from immobilised B08; CRP 195 pM in PBS
[8] = target: monoclonal mouse IgG1 anti human CRP antibody B08; assay: swCNT-FET displacement of peptide 80715-Au nanoparticle complex from immobilised B08; CRP 3 pM in PBS

B1: biomarker C-reactive protein (CRP) (protein, human, UniProt P02741 19-224, looked up)
chain: QTDMSRKAFVFPKESDTSYVSLKAPLTKPLKAFTVCLHFYTELSSTRGYSIFSYATKRQDNEILIFWSKDIGYSFTVGGSEILFEVPEVTVAPVHICTSWESASGIVEFWVDGKPRVRKSLKKGYTVGAEASIILGQEQDSFGGNFEGSQSLVGDIGNVNMWDFVLSPDEINTIYLGGPFSPNVLNWRALKYEVQGEVFTKPQLWP
- ΔV (V) [1]: -0.022 V
- ΔV (V) [2]: -0.024 V
- ΔV (V) [3]: -0.02 V
- ΔV (V) [4]: -0.016 V
- ΔV (V) [5]: -0.009 V
- ΔV (V) [6]: -0.027 V
- ΔV (V) [7]: -0.017 V
- ΔV (V) [8]: -0.013 V
